The values below come from US20150202161A1, “PROCESS FOR MANUFACTURING DRUG DELIVERY FORMULATIONS” (O-RAY PHARMA, INC., priority 2012, published 2015).

A short description of the data set: In vitro release (dissolution) of Infliximab from packed silicone cup and of lyophilized powder. Type of data set: physicochemical. The note with it: release into 600 μl water with stirring at room temperature (23° C.); UV absorption at 280 nm. On the procedure:
A solid drug pellet (FIG. 4, 402.) was created by mixing 75% infliximab with 25% hydroxy propyl methyl cellulose (HPMC). This solid pellet was packed into a silicone cup (FIG. 1, 101.). The drug can only release from one end of the silicone and this end is subsequently coated with a controlled release polymer formulation of 5 μl of 10% polylactic acid (FIG. 1, 107.) to control its release. Dissolution studies were performed with lyophilized infliximab powder and infliximab packed extended release formulations. For each sample, release into 600 μl water was carried out with stirring at room temperature (23° C.). Aliquots were removed at timed intervals and analyzed with UV absorption spectroscopy at 280 nm using a Spectramax Plus384 96 well plate reader.

Turning to “Lyophilized infliximab powder: TNF-α inhibitor infliximab as unformulated lyophilized powder, comparator in dissolution study”, the “release upon addition to solvent” value was “releases almost immediately”.
